Test results from article PMC10778600, “Conserved Residues Lys64 and Glu78 at the Subunit Surface of Tau Glutathione Transferase in Rice Affect Structure and Enzymatic Properties” (International Journal of Molecular Sciences, 2023).
Each block holds one molecule with its values, some of them ahead of it.

Key:
[1] = target: wild-type OsGSTU17 (rice tau class glutathione transferase) (Oryza sativa); experiment: native gel or EMSA; native PAGE of the purified proteins, gel pre-run 30-60 min, 100-200 V, 0-4 °C; BSA and ovalbumin as markers; molecular weight compared with SDS-PAGE of the denatured proteins
[2] = target: OsGSTU17 mutant E78A (Oryza sativa); experiment: as above
[3] = target: OsGSTU17 mutant K64A (Oryza sativa); experiment: as above
[4] = substrate: O=[N+]([O-])c1ccc(Cl)c2nonc12; experiment: steady-state kinetics, non-linear regression; type: biochemical, Oryza sativa; details: GSH fixed at 1.0 mM; NBD-Cl 0.2 to 1.0 mM
Description: steady-state kinetics, non-linear regression on OsGSTU17

- stoichiometry N [1]: 2
Molecule: wild-type OsGSTU17 (rice tau class glutathione transferase) (enzyme)

- stoichiometry N [2]: 2
Molecule: OsGSTU17 mutant E78A (enzyme)

- stoichiometry N [3]: 2
Molecule: OsGSTU17 mutant K64A (enzyme)

B1: OsGSTU17 (Oryza sativa Japonica Group; K64A) (protein)
chain: MAADKGVKVFGMWASPMAIRVEWALRLKGVDYEYVDEDLANKSEALLRHNPVTKKVPVLVHDGAPLAESTVIVEYIDEAWKHGYPIMPSDPFDRAQARFWARFAEEKCNAALYPIFMTTGEEQRKLVHEAQQCLKTLETALEGKKFFGGDAFGYLDIVTGWFAYWLPVIEEACGVEVVTDEALPLMKAWFDRVLAVDAVKAVLPPRDKLVALNKARREQILSA
- Km [4]: 507 ± 25 µM
- Vmax [4]: 0.287 µM/min/mg
- kcat [4]: 0.217 s⁻¹
- kcat/Km [4]: 428 M⁻¹ s⁻¹
